Read-outs that look alike come from different tables or passages of the source.
B1: CD46-Fc (Fc fusion)
chain: CEEPPTFEAMELIGKPKPYYEIGERVDYKCKKGYFYIPPLATHTICDRNHTWLPVSDDACYRETCPYIRDPLNGQAVPANGTYEFGYQMHFICNEGYYLIGEEILYCELKGSVAIWSGKPPICEKVLCTPPPKIKNGKHTFSEVEVFEYLDAVTYSCDPAPGPDPFSLIGESTIYCGDNSVWSRAAPECKVVKCRFPVVENGKQISGFGKKFYYKATVMFECDKGFYLDGSDTIVCDSNSTWDPPVPKCLKVLPPSSTKPPALSHSVSTSSTTKSPASSASGPRPTYKPPVSNY
notes: range 35-328
B2: recombinant soluble MeV-H H1 (other)
chain: RLHRAAIYTAEIHKSLSTNLDVTNSIEHQVKDVLTPLFKIIGDEVGLRTPQRFTDLVKFISDKIKFLNPDREYDFRDLTWCINPPERIKLNYDQYCADVAAEELMNALVNSTLLETRTTNQFLAVSKGNCSGPTTIRGQFSNMSLSLLDLYLSRGYNVSSIVTMTSQGMYGGTYLVEKPNLNSKGSELSQLSMYRVFEVGVIRNPGLGAPVFHMTNYFEQPISKDLSNCMVALGELKLAALCHGGDSITIPYQGSGKGVSFQLVKLGVWKSPTDMHSWVPLSTDDPVIDRLYLSSHRGVITDNQANWAVPTTRTDDKLRMETCFQQACKGKIQALCENLEWAPLKDSRIPSYGVLSVDLSLAAEPKIKIASGFGPLITHGSGMDLYKSNHNNVYWLTIPPMKNLALGVINTLEWIPRLKVSPNLFTVPIKEAGEDCHAPTYLPAEVDGDVKLSSNLVILPGQDLQYVLATYDTSRVEHAVVYYVYSPSRSFSYFYPFRLPIKGTPIELQVECFTWAQRLWCRHFCVLADSESGGHLTHSGMVGMEVSCTVNREDEANRR
B3: recombinant soluble MeV-H Δ8 (other)
chain: RLHRAAIYTAEIHKSLSTNLDVTNSIEHQVKDVLTPLFKIIGDEVGLRTPQRFTDLVKFISDKIKFLNPDREYDFRDLTWCINPPERIKLNYDQYCADVAAEELMNALVNSTLLETRTTNQFLAVSKGNCPGPTTIRGQFSNMSLSLLDLYLSRGYNVSSIVTMTSQGMYGGTYLVGKPDLNSKGSELSQPSMYRVFEVGVIRNPGLGAPVFHMTNYFEQPISKDLSNCMVALGELKLAALCHRGDSITIPCRGSGKGVSFQLVKLGVWKSPTDMHSWVPLSTDDPVIDRLYLSSHRGVITDNQANWAVPTTRTDDKLQKETCFQQACKGKIQALCENLEWAPLKDSRIPSYGVLSVNLSLAAEPKIKIASGFGPLITHGSGMDLYKSNHNNVYWLTIPPMKNLALGVINTLKWIPRLKVSPYLFTVPIEEADEDCRAPTYLPAEVTGDVKLSSNLVILPGQDLQYVLATYDTSGVEHAVVYYVYSPGGSFSYVYPFRLPIKGTPIELQVECFTWAQRLWCRHFCVLADSESGGHLTHSGMVGMEVSCTVNREDEANRR
B4: SLAM-Fc (Fc fusion)
chain: ASYGTGGRMMNCPKILRQLGSKVLLPLTYERINKSMNKSIHIVVTMAKSLENSVENKIVSLDPSEAGPPRYLGDRYKFYLENLTLGIRESRKEDEGWYLMTLEKNVSVQRFCLQLRLYEQVSTPEIKVLNKTQENGTCTLILGCTVEKGDHVAYSWSEKAGTHPLNPANSSHLLSLTLGPQHADNIYICTVSNPISNNSQTFSPWPGCRTDPSETKP

How the values were obtained:
[1] = target: recombinant soluble MeV-H A (vaccine strain) (measles virus)
[2] = target: B3; assay: ELISA, receptor-Fc titrated on plastic-bound MeV-H
SLAM-Fc [3] = target: T1, SLAM-Fc (UniProt Q13291 21-237); assay: ELISA, receptor-Fc titrated on plastic-bound MeV-H; one-site fit, apparent Kd
T1 sequence: B4 chain

CD46-Fc = target: B1; assay: ELISA, receptor-Fc titrated on plastic-bound MeV-H; one-site fit, apparent Kd (half-saturating concentration)
SLAM-Fc [4] = target: T1, SLAM-Fc; assay: ELISA, receptor-Fc on plastic-bound MeV-H
[5] = target: recombinant soluble MeV-H A (vaccine strain) (measles virus); assay: ELISA, receptor-Fc titrated on plastic-bound MeV-H; one-site fit
[6] = target: recombinant soluble MeV-H A (vaccine strain) (measles virus); assay: ELISA, receptor-Fc titrated on plastic-bound MeV-H; one-site fit, apparent Kd

Molecule: CD46-Fc (from UniProt P15529 35-328) (Fc fusion)
- Kd [1]: 819 µM

Molecule: nectin-4-Fc (from UniProt Q96NY8 32-349) (Fc fusion)
- Bmax [1]: 1.56

Molecule: B1
- fold better binding than MeV-H A and H1 [2]: ~4000 fold

Molecule: B2
- Kd (SLAM-Fc [3]): 10.4 µM

Molecule: B3
- Kd (CD46-Fc): 0.00019 µM
- binding result (SLAM-Fc [4]): no binding

Molecule: B4
- Bmax [5]: 2.09
- Kd [6]: 2.68 µM
